± gives the uncertainty stated by the source.
B1: Far upstream element-binding protein 1, residues 184 to 257; numbered along this chain, Q96AE4 (parent)
chain: GNAVQEIMIPASKAGLVIGKGGETIKQLQERAGVKMVMIQDGPQNTGADKPLRITGDPYKVQQAKEMVLELIRD
B2: Peripheral plasma membrane protein CASK, residues 488 to 569; numbered along this chain, O14936 (parent)
chain: VRLVQFQKNTDEPMGITLKMNELNHCIVARIMHGGMIHRQGTLHVGDEIREINGISVANQTVEQLQKMLREMRGSITFKIVP

Variants of: B1
Experiment: abundance fitness (aPCA) (normalised: wild type 0, dead -1); higher = more abundant; growth selection in yeast, the domain comes from the species named
Conditions: Homo sapiens

Variant | abundance fitness
Q44H | 0.042 ± 0.052
Q44K | 0.038 ± 0.036
Q44D | 0.004 ± 0.047
Q44Y | -0.002 ± 0.06
G22F | -0.145 ± 0.054
G22S | -0.114 ± 0.033
G22E | -0.056 ± 0.032
G22C | -0.106 ± 0.042
G22R | -0.116 ± 0.027
V68R | -0.562 ± 0.031
V68T | -0.143 ± 0.034
V68E | -0.427 ± 0.035
V68W | -0.963 ± 0.061
V68Q | -0.441 ± 0.044
Y59T | 0.047 ± 0.033
Y59K | 0.036 ± 0.036
Y59P | 0.015 ± 0.031
Y59L | 0.026 ± 0.028
Y59M | -0.043 ± 0.035
Y59D | 0.057 ± 0.042
Y59I | 0.046 ± 0.048
Y59C | -0.003 ± 0.044
E30D | -0.024 ± 0.046
E30L | -0.026 ± 0.031
E30M | 0.025 ± 0.041
E30Q | -0.035 ± 0.04

Variant | abundance fitness
E30Y | -0.114 ± 0.06
E30S | -0.007 ± 0.032
P51C | -0.005 ± 0.044
P51E | -0.014 ± 0.039
P51T | -0.018 ± 0.035
P51H | -0.026 ± 0.045
P51K | -0.03 ± 0.039
P51I | -0.086 ± 0.045
V34Q | -0.833 ± 0.063
V34D | -0.807 ± 0.067
V34G | -0.767 ± 0.033
V34Y | -1.11 ± 0.12
V34N | -0.68 ± 0.087
V34F | -1.35 ± 0.15
V34K | -0.946 ± 0.074
Q29R | -0.137 ± 0.027
Q29I | -0.342 ± 0.06
Q29E | -0.026 ± 0.034
D41N | 0.047 ± 0.049
D41M | -0.089 ± 0.045
D41E | 0.009 ± 0.035
T24W | -0.224 ± 0.035
T24Q | -0.012 ± 0.035
T24R | -0.013 ± 0.026
T24K | 0.007 ± 0.041
T24A | -0.075 ± 0.032

Variant | abundance fitness
T24C | -0.061 ± 0.041
T24P | -0.206 ± 0.033
G42D | -0.069 ± 0.046
G42M | -0.084 ± 0.04
G42I | -0.052 ± 0.054
A32W | -0.057 ± 0.037
G19C | -0.473 ± 0.056
G19V | -0.763 ± 0.043
G19I | -0.931 ± 0.11
G19R | -0.438 ± 0.03
I39D | -0.105 ± 0.045
I39E | -0.001 ± 0.036
I39F | 0.035 ± 0.061
I39P | -0.061 ± 0.035
I39T | -0.088 ± 0.036
I39V | 0.006 ± 0.031
N2A | 0.043 ± 0.033
I54R | -1.06 ± 0.047
I54V | -0.148 ± 0.033
I54D | -0.829 ± 0.075
I54Q | -0.902 ± 0.068
I54W | -1.06 ± 0.073
I54M | -0.074 ± 0.037
I54C | -0.504 ± 0.054
I54S | -0.522 ± 0.045
G1W | -0.502 ± 0.056

Variant | abundance fitness
G1I | 0.193 ± 0.086
G1P | -0.212 ± 0.093
G1E | -0.061 ± 0.039
K50Y | 0.018 ± 0.054
K50E | -0.202 ± 0.035
K50N | -0.071 ± 0.049
K50R | -0.005 ± 0.026
K50V | -0.005 ± 0.031
K50A | -0.027 ± 0.033
L71F | -0.078 ± 0.045
Q62G | -0.03 ± 0.027
Q62K | -0.022 ± 0.035
Q62W | -0.114 ± 0.035
Q62E | 0.02 ± 0.034
L28I | -0.026 ± 0.058
L28T | -0.315 ± 0.041
L28S | -0.639 ± 0.041
L28Y | -0.338 ± 0.055
L28K | -0.791 ± 0.059
I9F | -0.737 ± 0.066
I9A | -1 ± 0.056
E6M | -0.078 ± 0.042
E6R | -0.145 ± 0.026
E6C | -0.366 ± 0.044
E6F | -0.217 ± 0.046
E6S | -0.185 ± 0.031

Variant | abundance fitness
R53N | -0.257 ± 0.064
R53S | -0.148 ± 0.033
R53W | -0.205 ± 0.037
R53L | -0.075 ± 0.033
R53M | -0.031 ± 0.044
P58C | -0.1 ± 0.047
P58G | -0.034 ± 0.028
P58E | -0.004 ± 0.034
P58W | -0.044 ± 0.038
P58R | 0 ± 0.027
P58N | -0.139 ± 0.057
P58Y | -0.022 ± 0.056
P58T | -0.002 ± 0.037
K35D | -0.07 ± 0.046
K35E | 0.003 ± 0.035
K35L | -0.118 ± 0.03
K35F | -0.261 ± 0.053
K35Q | 0.015 ± 0.039
M67C | -0.187 ± 0.04
M67H | -0.078 ± 0.047
M67K | -0.111 ± 0.039
M67S | -0.078 ± 0.031
M67I | -0.128 ± 0.051
M67D | -0.075 ± 0.042
E70G | -0.044 ± 0.029
E70W | -0.239 ± 0.037

Variant | abundance fitness
E70V | -0.339 ± 0.033
E70A | -0.04 ± 0.033
E70S | -0.106 ± 0.031
E70M | -0.152 ± 0.04
N45P | -0.055 ± 0.04
N45E | -0.024 ± 0.029
N45S | -0.057 ± 0.031
N45M | -0.055 ± 0.039
N45A | -0.019 ± 0.034
N45W | -0.105 ± 0.042
N45L | -0.128 ± 0.033
A64W | -1.2 ± 0.07
A64E | -0.694 ± 0.041
A64M | -0.469 ± 0.042
A64D | -0.725 ± 0.059
A64T | -0.296 ± 0.037
A64C | -0.118 ± 0.042
A64R | -0.853 ± 0.035
A64Q | -0.695 ± 0.049
A64F | -0.754 ± 0.064
T46L | -0.038 ± 0.03
T46P | -0.012 ± 0.034
T46C | -0.058 ± 0.049
T46Y | -0.115 ± 0.055

Variants of: B2
Experiment: as above
Conditions: Homo sapiens

Variant | abundance fitness
P82M | -0.204 ± 0.077
P82W | -0.359 ± 0.091
P82S | -0.021 ± 0.035
P82R | -0.063 ± 0.044
P82N | -0.048 ± 0.084
P82I | -0.237 ± 0.27
P82L | -0.214 ± 0.053
P82Y | -0.45 ± 0.17
P82T | -0.042 ± 0.049
P82H | -0.151 ± 0.097
P82Q | 0.02 ± 0.073
P82K | -0.143 ± 0.092
P82V | -0.089 ± 0.056
